Measured values from US20120275996A1 (AbbVie / Abbott, published 2012).

T1: human IL-1α (human, UniProt P01583 113-271)
T1 construct: also called hIL-1α; recombinant purified human IL-1α
T1 sequence: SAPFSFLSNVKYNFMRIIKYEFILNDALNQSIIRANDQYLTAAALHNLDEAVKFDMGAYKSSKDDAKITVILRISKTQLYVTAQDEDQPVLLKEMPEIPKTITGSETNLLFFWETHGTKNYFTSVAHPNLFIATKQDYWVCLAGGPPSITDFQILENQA

T2: cynomolgus IL-1α (cynomolgus, UniProt P79340 113-271, limits assumed)
T2 sequence (looked up): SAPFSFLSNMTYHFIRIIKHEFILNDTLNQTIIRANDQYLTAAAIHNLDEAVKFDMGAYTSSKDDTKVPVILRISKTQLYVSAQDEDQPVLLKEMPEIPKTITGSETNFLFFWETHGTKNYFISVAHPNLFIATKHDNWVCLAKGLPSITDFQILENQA

B1: 3D12-372-10 (antibody, V domains shown)
VH: EIQLVQSGAEVKKPGASVKVSCKASGYTFTNYGMNWVRQAPGQGLEWMGWINTYTGESTYADDFKGRFTFTLDTSTSTAYMELSSLRSEDTAVYFCARGIYYYGSSYAMDYWGQGTTVTVSS
VL: DIQMTQSPSSLSASVGDRVTITCRASQDISDMLNWYQQKPGKTPKLLIYHTSRLYSGVPSRFSGSGSGTDYTFTISSLQPEDIATYFCQQGKTLPPAFGQGTKLEIKR
notes: no constant regions are stated for this clone
B2: 3D12-362-10 (antibody, V domains shown)
VH: EVQLVQSGAEVKKPGVSVKVSCKASGYTFTTYGMHWVRQAPGQGLEWMGWINTYTGESTYADDFQGRVTFTLDTSTSTAYMELSSLRSEDTAVYFCARGIYYYGSSYAMNYWGQGTTVTVSS
VL: DIQMTQSPSSLSASVGDRVTITCRASQDISNCLNWYQQKPGKTPKLLIYYTSRLHSGVPSRFSGSGSGTDYTFTISSLQPEDIATYFCQQGKTLPYAFGQGTKLEIKR
notes: no constant regions are stated for these clones; The humanized parents used human IgG1 with L234A/L235A and human kappa
B3: 3D12-372-15 (antibody, V domains shown)
VH: EIQLVQSGAEVKKPGASVKVSCKASGYTFTNYGMNWVRQAPGQDLEWMGWINTYTGESTYADDFKGRFTFTLDTSTSTAYMELSSLRSEDTAVYFCARGIYYYGSSYAMDYWGQGTTVTVSS
VL: DIQMTQSPSSLSASVGDRVTITCRASQDISNMLNWYQQKPGKTPKLLIYYTSRLYPGVPSRFSGSGSGTDYTFTISSLQPEDIATYFCQQGKTLPYAFGQGTKLEIKR
notes: as for B1
B4: 3D12-362-10/372-10 (antibody, V domains shown)
VH: EVQLVQSGAEVKKPGVSVKVSCKASGYTFTTYGMHWVRQAPGQGLEWMGWINTYTGESTYADDFQGRVTFTLDTSTSTAYMELSSLRSEDTAVYFCARGIYYYGSSYAMNYWGQGTTVTVSS
VL: DIQMTQSPSSLSASVGDRVTITCRASQDISDMLNWYQQKPGKTPKLLIYHTSRLYSGVPSRFSGSGSGTDYTFTISSLQPEDIATYFCQQGKTLPPAFGQGTKLEIKR
B5: 3D12.6 (antibody, V domains shown)
VH: EIQLVQSGSELKKPGASVKVSCKASGYTFTNYGMNWVRQAPGQDLERMAWINTYTGESTYADDFKGRFVFSLDTSVSTAYLQISSLKAEDTAVYFCARGIYYYGSSYAMDYWGQGTTVTVSS
VL: DIQMTQSPSSLSASVGDRVTITCRASQDISNCLNWYQQKPGKTPKLLIYYTSRLHSGVPSRFSGSGSGTDYTFTISSLQPEDIATYFCQQGKTLPYAFGQGTKLEIK
notes: Full-length humanized antibody; VH is fused to a human IgG1 constant region with L234A and L235A (EU numbering); also called VH H3D12VH.1A / VL H3D12VK.1C; VH3D12.6
B6: 3D12.11 (antibody, V domains shown)
VH: EIQLVQSGAEVKKPGASVKVSCKASGYTFTNYGMNWVRQAPGQDLERMAWINTYTGESTYADDFKGRFTFTLDTSTSTAYMELSSLRSEDTAVYFCARGIYYYGSSYAMDYWGQGTTVTVSS
VL: DIQMTQSPSSLSASVGDRVTITCRASQDISNCLNWYQQKPGKTPKLLIYYTSRLHSGVPSRFSGSGSGTDYTFTISSLQPEDIATYFCQQGKTLPYAFGQGTKLEIK
notes: Full-length humanized antibody; VH is fused to a human IgG1 constant region with L234A and L235A (EU numbering); also called VH H3D12VH.2A / VL H3D12VK.1C; VH3D12.11

Legend:
human IL-1α [1] = molecular target: T1, human IL-1α; assay: ELISA; antibody captured by anti-human Fc, biotinylated antigen titrated
Method: Plates were washed five times in washing buffer (PBS containing 0.05% Tween 20), and blocked for 1 hour at 25° C. with 200 μl per well superblock blocking buffer (Thermo scientific, #37515). Blocking buffer was removed by tapping plates, and 2 μg/ml of each antibody in PBS containing 10% superblock, 0.5% tween-20 was added to the wells at 100 μl per well and incubated at 25° C. for 1 hour. The wells were washed five times in 1×PBST, and 1 μg/ml biotinylated antigen was titrated at 1:6 serial dilutions (for a range of μg to pg in PBS containing 10% superblock, 0.05% Tween 20). Each dilution of antigen was then added to the plates and incubated for 1 hour at 25° C. The wells were washed five times in 1XPBST and incubated for 1 hour at […]. with polyHRP streptavidin (KPL #474-3000, Gaithersburg, Md.). The wells were washed five times in 1XPBST, and 100 μl of ULTRA-TMB ELISA (Pierce, Rockford, Ill.) were added per well. Following color development the reaction was stopped with 1N HCL and absorbance at 450 nm is measured. The results are shown in Table 11 and the numerical value indicates binding of human anti-IL-1a antibodies to human IL-1α.

human IL-1α [2] = molecular target: T1, human IL-1α; assay: cell-based or functional assay
cynomolgus IL-1α [3] = molecular target: T2, cynomolgus IL-1α; assay: cell-based or functional assay
human IL-1α [4] = molecular target: T1, human IL-1α; assay: SPR (Biacore 3000), antibody captured, antigen in solution, 25 °C
Method: (§1) The BIACORE assay (Biacore, Inc, Piscataway, N.J.) determines the affinity of antibodies with kinetic measurements of on-, off-rate constants. Binding of antibodies to recombinant purified human IL-1α and cynomolgus IL-1α was determined by surface plasmon resonance-based measurements with a Biacore® 3000 instrument (Biacore® AB, Uppsala, Sweden) using running HBS-EP (10 mM HEPES [pH 7.4], 150 mM NaCl, 3 mM EDTA, and 0.005% surfactant P20) at 25° C. All chemicals were obtained from Biacore® AB (Uppsala, Sweden) or otherwise from a different source as described in the text. Approximately 5000 RU of goat anti-mouse IgG, (Fcγ), fragment specific polyclonal antibody (Pierce Biotechnology Inc, Rockford, Ill.) diluted in 10 mM sodium acetate (pH 4.5) was directly immobilized across a CM5 research grade biosensor chip using a standard amine coupling kit according to manufacturer's instructions and procedures at 25 μg/ml. Unreacted moieties on the biosensor surface were blocked with ethanolamine. Modified carboxymethyl dextran surface in flowcell 2 and 4 was used as a reaction surface. Unmodified carboxymethyl dextran without goat anti-mouse IgG in flow cell 1 and 3 was used as the reference surface. For kinetic analysis, rate equations derived from the 1:1 Langmuir binding model were fitted simultaneously to association and dissociation phases of all eight injections (using global fit analysis) with the use of Biaevaluation 4.0.1 software. Purified antibodies were diluted in HEPES-buffered saline for capture across goat anti-human IgG specific reaction surfaces. Antibodies to be captured as a ligand (25 μg/ml) were injected over reaction matrices at a flow rate of 5 μl/minute. The association and dissociation rate constants, kₒₙ (unit M⁻¹s⁻¹) and koff (unit s⁻¹) were determined under a continuous flow rate of 25 μl/min Rate constants were derived by making kinetic binding measurements at ten different antigen concentrations ranging from 10-200 nM. The equilibrium dissociation constant (unit M) of the reaction between antibodies and the target antigen was then calculated from the kinetic rate constants by the following formula: KD=koff/kₒₙ. Binding is recorded as a function of time and kinetic rate constants are calculated. In this assay, on-rates as fast as 10⁶M⁻¹s⁻¹ and off-rates as slow as 10⁻⁶ s⁻¹ can be measured.

cynomolgus IL-1α [5] = molecular target: T2, cynomolgus IL-1α; assay: as above
Method: as §1

Binder	EC50 (human IL-1α [1]) [nM]	Potency on hIL-1α (pM); inhibition of IL-1α induced hIL-8 production by MRC-5 cells (human IL-1α [2]) [pM]	Potency on cyno IL-1α (pM); inhibition of IL-1α induced hIL-8 production by MRC-5 cells (cynomolgus IL-1α [3]) [pM]	Kd (human IL-1α [4]) [nM]	koff (human IL-1α [4]) [s⁻¹]	kon (human IL-1α [4]) [M⁻¹ s⁻¹]	Kd (cynomolgus IL-1α [5]) [nM]	koff (cynomolgus IL-1α [5]) [s⁻¹]	kon (cynomolgus IL-1α [5]) [M⁻¹ s⁻¹]
B1	0.0721	49.9	49.2						
B2	0.0196	4.8	6.2	0.0528	8.38e-05	1.59e+06	0.0135	2.19e-05	1.63e+06
B3	0.0742	38.6							
B4	0.133	29.3	4.9						
B5				1.78	0.00206	1.16e+06			
B6				0.665	0.00108	1.64e+06			
